Laboratory results published in the nanobody polyreactivity screen of Harvey et al. (2022).

Assay: yeast display, Sf9 membrane polyspecificity reagent, FACS + sequencing; frameworks hold sequencing errors
Method in brief: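 In a synthetic yeast display library (Saccharomyces cerevisiae BJ5465), nanobody expression was induced with galactose for 36–48 hours. FACS gates were set low and high (top ~1%) using anti-HA fluorescence for expression and streptavidin fluorescence for binding of the Sf9 membrane reagent. Each polyreactivity label is drawn from the gate of origin.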

Row | Sequence | polyreactivity (PSR sort gate)
1 | QVQLVESGGGLVQAGGSLRLSCAASGRTFGGYAMGWYRQAPGKESELVARISRSGGSTYYADSVKGRFTISRDNAKNTVYLQMNSLKPEDTAVYYCNTGLRNAYGWPQDDYWGQGTQVTVSS | low polyreactivity
2 | QVQLVESGGGLVQAGGSLRLSCAASGRTFGIYAMGWYRQAPGKERELVAAITWSGDSTYYADSVKGRFTISRDNAKNTVYLQMNSLKPEDTAVYYCAADYVGVTSVRYDYWGQGTQVTVSS | low polyreactivity
3 | QVQLVESGGGLVQAGGSLRLSCAASGRTFGIYAMGWYRQAPGKERELVATISWRGGSTYYADSVKGRFTISRDNAKNTVYLQMNSLKPEDTAVYYCAAGYYPYWGQGTQVTVSS | low polyreactivity
4 | QVQLVESGGGLVQAGGSLRLSCAASGRTFGIYVMGWYRQAPGKEMEWVAAIRGGGTTYYADSVKGRFTISRENAKNTVYLQMNSLKPEDTAVYYCAAVVKWWGQSRYDYWGQGTQVTVSS | high polyreactivity
5 | QVQLVESGGGLVQAGGSLRLSCAASGRTFGKYAMGSYTQAPGKETELVAAISSSGGSTYYADSVKGRFTISRDNAKNTVYLQMNSVKPEDTAVYYCGARWSYRDDYWGQGTQVTVSS | high polyreactivity
6 | QVQLVESGGGLVQAGGSLRLSCAASGRTFGKYAMGWDRQAPGKEMELVAAISTDVGDTYYADSVKGRFTISRDNAKNTVYLQMNSLKPEDTAVYYCAASFVYYGVDFVSWFWEGDYWGQGTQVTVSS | low polyreactivity
7 | QVQLVESGGGLVQAGGSLRLSCAASGRTFGKYAMGWYRQAPGKERELVASITFSSGSTYYADSVKGRFTISRDNAKNTVYLQMNSLKPEDTAVYYCAKRGWGIYDYWGQGTQVTVSS | low polyreactivity
8 | QVQLVESGGGLVQAGGSLRLSCAASGRTFGKYAMGWYRQAPGKERELVATISLSGGSTYYADSVKGRFTISRDNAKNTVYLQMNSLKPEDTAVYYCAARRKFDYWGQGTQVTVSS | high polyreactivity
9 | QVQLVESGGGLVQAGGSLRLSCAASGRTFGKYAMGWYTQAPGKEREFVAAISWSGATTRYADSVKGRFTISRDNAKNTVYLQMNSLKPEDTAVYYCAATYYYVYGYRGDYWGQGTQVTVSS | high polyreactivity
10 | QVQLVESGGGLVQAGGSLRLSCAASGRTFGKYTMGWYRQAPGKERELVAAINRRGGSTYYADSVKGRFTISRDNAKNTVYLQMNSLKPEDTAVYYCAKDGYSIDRYYWGQGTQVTVSS | high polyreactivity
11 | QVQLVESGGGLVQAGGSLRLSCAASGRTFGLYAMGWYRQAPGKERELVAAIDQSTGSTYYADSVKGRFTISRDHAKNTVYLQMNSLKPEDTAVYYCAAEEASTVRYYWYDYWGQGTQVTVSS | high polyreactivity
12 | QVQLVESGGGLVQAGGSLRLSCAASGRTFGLYAMGWYRQAPGKERELVAAISWGGGRTYYADSVKGRFTISRDNAKNTVYLLMNSLKPEDTAVYYCNALYATYYLGYDYWGQGTQVTVSS | high polyreactivity
13 | QVQLVESGGGLVQAGGSLRLSCAASGRTFGLYAMGWYRQAPGKERELVATISVSSGSTYYADSVKGRFTISRDNAKYTVYLQMNSLKPEDTAVYYCNVRYKRNRWQYDYWGQGTQVTVSS | high polyreactivity
14 | QVQLVESGGGLVQAGGSLRLSCAASGRTFGLYDMGWYRQAPGKERELVAGITRRGGCTYYADSVKGRFTISRDNAKNTVYLQMYSLKPEDTAVYYCAAGTIYLRHAQSPFDYWGQGTQVTVSS | high polyreactivity
15 | QVQLVESGGGLVQAGGSLRLSCAASGRTFGPNVIGWYRQAPGKERELVAAITSGGTTYYADSVKGRFTISRDNAKNTVYLQMNSLKPEDTAVYYCNARYVYHSSFAGFDYWGQGTQVTVSS | low polyreactivity
16 | QVQLVESGGGLVQAGGSLRLSCAASGRTFGPYAMGWYRQAPGKEREFVAAISYSGGSTYYADSVKGRFTISRDNAKNTVYLQMNSLKPEDTAVYYCAVDIDSNSGTRDYWGQGTQVTVSS | low polyreactivity
17 | QVQLVESGGGLVQAGGSLRLSCAASGRTFGQYAMGWYRQAPGKERELVAAITGGGSTNYADSVKGRFTISRDNAKNTVYLHMNSLKPEDTAVYYCAAKARSYWYPRLYIYEGDYWGQGTQVTVSS | low polyreactivity
18 | QVQLVESGGGLVQAGGSLRLSCAASGRTFGQYAMGWYRQAPGKERELVAAITTRGGSTYYADSVKGRFTISRDNAKNTVYLQMNSLKPEDTAVYYCIADYPVKRRRGRDYWGQGTQVTVSS | high polyreactivity
19 | QVQLVESGGGLVQAGGSLRLSCAASGRTFGQYVMGWYRQAPGKERELVAAISSGDSTNYADSVKGRFTISRDNAKNTVYFQMNSLKPEDTAVYYCAAVYWVLWQGSTYGYWGQGTQVTVSS | low polyreactivity
20 | QVQLVESGGGLVQAGGSLRLSCAASGRTFGRNAMGWYRQAPGERELVAVISRRGSTYYADSVKGRFTISRDNAKNTVYLQMNSLKPEETAVDYCAAYYYIGGKYGSQVYEYDYWGQGTQVTVSS | low polyreactivity
21 | QVQLVESGGGLVQAGGSLRLSCAASGRTFGRNAMGWYRQAPGKERELVAAITWSGGRTYYADSVKGRFSISRDNAKNTVYLQMNSLKPEDTAVYYCARGSSSISIFYRYDYWGQGTQVTVSS | high polyreactivity
22 | QVQLVESGGGLVQAGGSLRLSCAASGRTFGRYAKGWSRQAPGKERELVAAISYSTDSTYYADSVKGRFTISRDNAKNTDYLQMNSLKPEYTAVYYCATDSVNVGSYVGDKHDYWGHGTQVTVSS | low polyreactivity

Row | Sequence | polyreactivity (PSR sort gate)
23 | QVQLVESGGGLVQAGGSLRLSCAASGRTFGRYAMGWYRQAPGKERELVAAISTSGGSTYYADSVKGRFTISRDNAKNTVYLQMNSLKPEDTAVYYCAATIGRRSYNQMYYWGQGTQVTVSS | high polyreactivity
24 | QVQLVESGGGLVQAGGSLRLSCAASGRTFGRYAMGWYRQAPGKERELVAAISYSTDSTYYADSVKGRFTISRDNAKNTVYLQMNSLKPEDTAVYYCAADRLRTSGYKTIYDYWGQGTQVTVSS | low polyreactivity
25 | QVQLVESGGGLVQAGGSLRLSCAASGRTFGRYAMGWYRQAPGKERELVAAITRSGGSTNYADSVKGRFTISRDNAKNTVYLQMNSLKPEDTAVYYCARRGYSVRTPEGYYWGQGTQVTVSS | high polyreactivity
26 | QVQLVESGGGLVQAGGSLRLSCAASGRTFGRYAMGWYRQAPGKERELVAGISGSVGITYYADSVKGRFTISRDNAKNTVYLQMNSLKPEDTAVYYCAVVARAGHKYDYWGQGTQVTVSS | low polyreactivity
27 | QVQLVESGGGLVQAGGSLRLSCAASGRTFGRYAMGWYRQAPGKERELVARIRTSGGRTYYADSVKGRFTISRDNAKYTVYLQMNSLKPEDTAVYYCATTSQPWYYWSTQGDDYWGQGTQVTVSS | low polyreactivity
28 | QVQLVESGGGLVQAGGSLRLSCAASGRTFGRYAMGWYRQAPGKERELVARISFTGGSTYADSVKGRFTISRDNAKNTVYLQMNSLKPEDTAVYYCNVPYYINHKFYDSPFVQRYDYWGQGTQVTVSS | low polyreactivity
29 | QVQLVESGGGLVQAGGSLRLSCAASGRTFGRYAMVWYRQAPGKEREFVASISRRGGTTYYADSVKGRFTISRDNAKNSVYLQMNSLKPEDTAVYYCNADRTVIYDYEYWGQGTQVTVSS | low polyreactivity
30 | QVQLVESGGGLVQAGGSLRLSCAASGRTFGRYLMGWYRQAPGKERLLVAAISFSGTGTYYADSVKGRFTISRDNAKYTVYLQMNSLKPEDTAVYYCAKGVTRVQYKHYYWGQGTQVTVSS | high polyreactivity
31 | QVQLVESGGGLVQAGGSLRLSCAASGRTFGRYSMGWYRQAPGKERELVAAISYSTDSTYYADSVKGRFTISRDNAKNTVYLQMNSLKPEDTAVYYCAALGYHRYRNYDYWGQGTQVTVSS | low polyreactivity
32 | QVQLVESGGGLVQAGGSLRLSCAASGRTFGSNAMGWYRQAPGKERELVANIDGGGGTYADSVKGRFTISRDNAKNTVYLQMNSLKPEDTAVYYCATRWSGYDMDYWGQGTQVTVSS | low polyreactivity
33 | QVQLVESGGGLVQAGGSLRLSCAASGRTFGSYAMGWYRPAPGKERELVAGISWSGGITYYADSVKGRFTISRDNAKNSVYLQMNSLKPEDTAVYYCAADSVVWEMEYWGQGTQVTVSS | high polyreactivity
34 | QVQLVESGGGLVQAGGSLRLSCAASGRTFGSYAMGWYRQAPGKEREFVAGISYGGGRTYYADSVKGRFTISRDNAKNTVYLQMNSLKPEDTAVYYCAADGVYRYNYPYLYTYDYWGQGTQVTVSS | low polyreactivity
35 | QVQLVESGGGLVQAGGSLRLSCAASGRTFGSYAMGWYRQAPGKERELVAAISRSGTNTYYADSVKGRFTISRDNAKNTVYLQMNSLKPEDTAVYYCATDFYFSSVLVWFSYGYWGQGTQVTVSS | low polyreactivity
36 | QVQLVESGGGLVQAGGSLRLSCAASGRTFGSYTMGWYRQAPGKERELVAAISWSGGRTYYADSVKGRFTISRDNAKNTVYLQMNSLKPEDTAVYYCNADAEVVPGEYDYWGQGTQVTVSS | low polyreactivity
37 | QVQLVESGGGLVQAGGSLRLSCAASGRTFGTNAMGWYRQAPGKERELVASIDLSADSTYYADSVKGRFTISRDNAKNNFYLQMNSLKPEDTAVYYCNKDGYPWPPNLDYWGQGTQVTVSS | low polyreactivity
38 | QVQLVESGGGLVQAGGSLRLSCAASGRTFGTNTMGWYRQAPGKEREFVATITSSGGSTYYADSVKGRFTISRDNAKNTVYVQINSLKPEATAVYYCATDPYGGNTLYPSLRYDYWGQGTQVTVSS | low polyreactivity
39 | QVQLVESGGGLVQAGGSLRLSCAASGRTFGTYAMGWYRQAPGKERELVAAITSGTRTYYADSVKGRFTISRDNAKNTVYLQMNSLKPEDTAVYDCAAGLVYRWSSTPRRLYYYWGQGTQVTVSS | high polyreactivity
40 | QVQLVESGGGLVQAGGSLRLSCAASGRTFGVNAMGWYRQAPGKERELVAAISRSGGSTYYADSVKGRFTISRDNAKNTVYLQMNSLKPEDTAVYYCAKSYFGNHLTGFGYWGQGTQVTVSS | low polyreactivity
41 | QVQLVESGGGLVQAGGSLRLSCAASGRTFGVYAMGSYRQAPGKEREFVATIRTTGSTNYADSVKGRFTISRDNAKNTVYLQMNSLKTEDTAVYYCAARQRQSKYYPYTTFTYDYWGQGTQVTVSS | high polyreactivity
42 | QVQLVESGGGLVQAGGSLRLSCAASGRTFGVYAMGWYRQAPGKERELVAAIRWSGGGTYYADSVKGRFTISRDNAKNTVYLQMISLKPEDTAVYYCAATFQNSPYTRYTDMYYWGQGTQVTVSS | low polyreactivity
43 | QVQLVESGGGLVQAGGSLRLSCAASGRTFGWNAMGWYRQAPGKERELVAAISLRGTSTYYADSVKGRFTISRDNAKNTVYLQMNSLKPEDTAVYYCAARGRNGVNYWGQGTQVTVSS | high polyreactivity
